Substrate in this data set: O=C(O)C(=O)O
The data set is described as follows: purified protein. As to conditions: pH 4.2 acetate buffer, 25 °C, free enzyme, not immobilised.

B1: Oxalate decarboxylase (OxDC), wild type, His6-tagged (Bacillus subtilis subsp. subtilis str. 168) (protein)
chain: MKKQNDIPQPIRGDKGATVKIPRNIERDRQNPDMLVPPETDHGTVSNMKFSFSDTHNRLEKGGYAREVTVRELPISENLASVNMRLKPGAIRELHWHKEAEWAYMIYGSARVTIVDEKGRSFIDDVGEGDLWYFPSGLPHSIQALEEGAEFLLVFDDGSFSENSTFQLTDWLAHTPKEVIAANFGVTKEEISNLPGKEKYIFENQLPGSLKDDIVEGPNGEVPYPFTYRLLEQEPIESEGGKVYIADSTNFKVSKTIASALVTVEPGAMRELHWHPNTHEWQYYISGKARMTVFASDGHARTFNYQAGDVGYVPFAMGHYVENIGDEPLVFLEIFKDDHYADVSLNQWLAMLPETFVQAHLDLGKDFTDVLSKEKHPVVKKKCSK
For the protein B1, the Km is 12 ± 3 mM, the kcat is 158 ± 13 s⁻¹ and the kcat/Km was found to be 13000 ± 3000 M⁻¹ s⁻¹.

For the origin of these results see paper PMC5668902.
